# Source: publication doi:10.1101/2022.05.30.494040
# pEC50: −log10 of the molar value.
# How the values were obtained:
# [1] = target: full-length Stx2 (human) (UniProt P32856); assay: AlphaScreen or HTRF
# [2] = target: full-length Stx4 (UniProt Q12846); assay: AlphaScreen or HTRF
# [3] = target: full-length SNAP23 (UniProt O00161); assay: AlphaScreen or HTRF
# [4] = target: Stx3 145-161 peptides (human) (UniProt Q13277); assay: peptide or protein array
# [5] = target: SNAP25 (human) (UniProt P60880); assay: AlphaScreen or HTRF
# Chain of UniProt P60880 (P60880 whole entry): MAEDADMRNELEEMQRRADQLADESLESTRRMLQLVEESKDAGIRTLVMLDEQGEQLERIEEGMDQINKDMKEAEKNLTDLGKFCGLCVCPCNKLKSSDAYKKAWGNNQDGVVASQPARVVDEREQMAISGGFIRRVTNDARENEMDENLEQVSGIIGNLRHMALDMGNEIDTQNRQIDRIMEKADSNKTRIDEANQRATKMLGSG
# Chain of UniProt Q12846 (Q12846 whole entry): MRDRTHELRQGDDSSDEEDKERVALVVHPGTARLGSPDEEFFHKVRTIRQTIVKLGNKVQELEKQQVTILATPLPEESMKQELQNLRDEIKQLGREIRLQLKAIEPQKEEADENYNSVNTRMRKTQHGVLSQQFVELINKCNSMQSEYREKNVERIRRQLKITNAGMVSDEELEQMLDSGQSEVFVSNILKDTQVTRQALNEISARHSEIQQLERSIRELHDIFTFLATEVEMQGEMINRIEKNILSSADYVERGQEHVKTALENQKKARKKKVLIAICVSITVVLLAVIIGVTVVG
# Chain of UniProt P32856 (P32856 whole entry): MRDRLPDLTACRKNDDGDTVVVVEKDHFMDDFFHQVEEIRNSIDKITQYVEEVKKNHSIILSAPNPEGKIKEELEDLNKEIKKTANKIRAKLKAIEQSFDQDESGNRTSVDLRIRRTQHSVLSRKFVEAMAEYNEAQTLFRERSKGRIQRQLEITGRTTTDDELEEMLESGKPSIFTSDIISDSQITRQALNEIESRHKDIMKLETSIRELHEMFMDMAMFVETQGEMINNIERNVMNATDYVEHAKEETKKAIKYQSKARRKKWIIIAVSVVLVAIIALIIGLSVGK
# Chain of UniProt O00161 (O00161 whole entry): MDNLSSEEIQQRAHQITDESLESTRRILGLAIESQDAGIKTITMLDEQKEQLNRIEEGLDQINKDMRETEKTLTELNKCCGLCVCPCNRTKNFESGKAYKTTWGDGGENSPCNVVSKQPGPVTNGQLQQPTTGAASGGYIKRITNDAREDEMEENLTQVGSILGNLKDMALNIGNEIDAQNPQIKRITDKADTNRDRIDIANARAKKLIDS
Substance,pEC50 [1],pEC50 [2],pEC50 [3],fold weaker binding than Stx2 144-160 [4],pEC50 [5]
His-tagged recombinant Gβ1γ2 (from UniProt P62873;P59768) (complex),7.19,7.04,7.11,5 fold,
His-tagged recombinant Gβ1γ2 (from UniProt P62873;P59768) (complex; other documents disagree on this pair),,,,,7.34
